Data as given in article PMC8769072, “Proteome‐scale mapping of binding sites in the unstructured regions of the human proteome” (Molecular Systems Biology, 2022).
Blank lines part the entries; values can stand above or below the substance they belong to.

What was measured:
[1] = biological target: FITC-labelled phospho-RAF1 255-264 probe peptide (FITC-QRSTpSTPNVH) (human); test: fluorescence polarisation; saturation: protein in serial dilution added to FITC-labelled probe peptide (master mix with 10 nM probe and 2 mM DTT), 50 mM KPO4 or NaPO4 pH 7.5; fitted to a quadratic equation
[2] = biological target: FITC-labelled Myc 320-328 probe peptide (FITC-…) (human); test: as above
[3] = biological target: FITC-labelled NCOR2 1307-1322 probe peptide (FITC-…) (human); test: as above
[4] = biological target: importin subunit alpha‐3 (KPNA4) ARM domain (UniProt O00629); test: FP competition against FITC-NCOR2 1307-1322 probe; details: reference: unphosphorylated peptide
[5] = biological target: MDM2 SWIB, cleaved from the His‐GST tag, for affinity measurements (human); test: fluorescence polarisation; competition: unlabelled peptide in serial dilution displaces a FITC-labelled probe peptide from the bait domain (master mix with protein at four times the KD of the probe, 10 nM probe, 2 mM DTT); 50 mM KPO4 or NaPO4 pH 7.5; triplicates; probe for KEAP1 Kelch: FITC-NFE2L1 228-243, other probes in Dataset EV6
[6] = biological target: KPNA4 ARM (importin subunit alpha-3, armadillo repeat domain) (human) (UniProt O00629); test: fluorescence polarisation; competition: unlabelled peptide in serial dilution against KPNA4 ARM (master mix at four times the KD) with the probe FITC-Myc(320-328), probe of the major pocket; 50 mM KPO4 pH 7.5; Ki calculated from IC50
[7] = biological target: KPNA4 ARM (importin subunit alpha-3, armadillo repeat domain) (human) (UniProt O00629); test: fluorescence polarisation; competition: unlabelled peptide in serial dilution against KPNA4 ARM (master mix at four times the KD) with the probe FITC-NCOR2(1307-1322), probe of the minor pocket; 50 mM KPO4 pH 7.5; Ki calculated from IC50

Substance: 14-3-3 protein sigma (SFN 14-3-3) (from UniProt P31947 1-248) (domain or fragment)
Kd [1]: 524000 nM

Substance: KPNA4 ARM domain, MBP-tagged (from UniProt O00629 1-521) (domain or fragment)
Kd [2]: 30 nM
Kd [3]: 228 nM

Substance: NCOR1 class III NLS peptide (from UniProt O75376) pY1247 peptide
binding against the reference ([4]; sites Y1247): same

Substance: ZNF532 1139-1154 peptide
IC50 [7]: 1300 nM

Results, then the substance that gave them:

binding against the reference ([4]; sites S1242): same
Substance: NCOR1 class III NLS peptide (from UniProt O75376) pS1242 peptide

binding against the reference ([4]; sites S1246): weaker
Substance: NCOR1 class III NLS peptide (from UniProt O75376) pS1246 peptide

Ki [5]: 3300 nM
Substance: NUMB_(615–630) peptide, synthetic (from UniProt P49757 615-630)

IC50 [6]: 260 nM
Substance: SPRTN 400-416 peptide
